Results taken from patent publication US6645504B1, “Bystander suppression of type I diabetes by oral administration of glucagon” (AutoImmune Inc., priority 1987, dated 2003).

Columns and labels:
MBP specific T-cells = assay: In vitro suppression of proliferative responses by supernatants; format: cell-based, Lewis rats; settings: supernatants of splenocytes from fed animals stimulated in vitro with MBP; FIG. 1
Method: Induction Of Oral Tolerance. Rats were fed 1 mg of MBP dissolved in 1 ml PBS, or PBS alone, by gastric intubation using a 18-gauge stainless steel animal feeding needle (Thomas Scientific, Swedesboro, N.J.). Animals were fed five times at intervals of 2-3 days with the last feeding two days before immunization. The purpose of this was to induce tolerance.
In Vitro Suppression Of Proliferative Responses By Supernatants. Spleen cells were removed 7-14 days after the last feeding and a single cell suspension prepared by pressing the spleens through a stainless steel mesh. For preparation of supernatants, spleen cells at a concentration of 5×10^6 cells/ml were stimulated in vitro with MBP (50 μg/ml) in 10 ml of proliferation medium. Proliferation medium consisted of RPMI 1640 (GIBCO, Grand Island, N.Y.) supplemented with 2×10^−5 M 2-mercaptoethanol, 1% sodium pyruvate, 1% penicillin and streptomycin, 1% glutamine, 1% HEPES buffer, 1% nonessential amino acids and 1% autologous serum. […] Cultures were harvested onto fiberglass filters using a multiharvester and counted using standard liquid scintillation techniques.
Purification Of T-Cell Subsets. […] The quantity of magnetic beads used was calculated as being 10 times the estimated target cell population. […]

EAE [1] = assay: EAE after MBP/CFA immunization with oral tolerization and in vivo anti-TGF-β antiserum; set-up: species or system Lewis rats; settings: orally tolerized animals treated 5 times with 50 μl control serum; score 0-5
OVA line = assay: Transwell culture suppression of OVA T cell line; format: cell-based, Lewis rats
Source text: Transwell Cultures. A dual chamber transwell culture system (Costar, Cambridge, Mass.), which is 24.5 mm in diameter and consists of two compartments separated by a semi-permeable polycarbonate membrane, with a pore size of 0.4 μm, was used. The two chambers are 1 mm apart, allowing cells to be coin-cubated in close proximity without direct cell-to-cell contact. To measure in vitro suppression of proliferative responses in transwell cultures, 5×10^4 MBP- or OVA-specific line cells, raised and maintained as previously described (Ben-Nun, A. et al., Eur. J. Immunol. 11:195, 1981), were cultured with 10^6 irradiated (2,500 rad) thymocytes, in 600 μl of proliferation media in the lower well. Spleen cells from orally tolerized rats or controls (fed BSA) were added to the upper well (5×10^5 cells in 200 μl). Spleen cells were removed 7-14 days after the last feeding, and a single cell suspension was prepared by pressing the spleens through a stainless steel mesh. MBP and OVA (50 μg/ml) were added in a volume of 20 μl. […] In some experiments, modulator cells were added in the lower well together with responder cells, and in these instances modulator cells were irradiated (1,250 rad) immediately before being placed in culture. Proliferation media consisted of RPMI 1640 (Gibco Laboratories, Grand Island, N.Y.) supplemented with […] 2-mercaptoethanol, 1% sodium pyruvate, 1% penicillin and streptomycin, 1% glutamine, 1% HEPES buffer, 1% nonessential amino acids, and 1% autologous serum. Each transwell was performed in quadruplicate. The transwells were incubated at 37° C. in a humidified 6% CO2 and 94% air atmosphere for 72 hours. After 54 hours of culture, each lower well was pulsed with 4 μCi of [^3H]thymidine and at 72 hours split and reseeded to three wells in a round-bottomed 96-well plate (Costar) for harvesting onto fiberglass filters and counting using standard liquid scintillation techniques. Percent suppression =100×(1−Δ A cpm responders cultured with modulators/Δ cpm of responders).

insulitis = assay: Suppression of insulitis in NOD mice by oral administration; format: in vivo; settings: fed orally
Method: NOD mice (Taconic Labs) were fed one mg of glucagon, or one mg of porcine insulin (both commercially purchased) or equal molar amounts of insulin A-chain, B-chain and B-chain peptides described below (all insulin fragments having been synthesized) twice weekly for five weeks and sacrificed at ten weeks of age.
Control animals were fed a non-pancreatic (i.e., unrelated) peptide, GAP. Insulitis was measured as a semiquantitative insulitis score according to the method described in Zhang, Z. J., PNAS(USA), 88:10252-10256, 1991.
The insulin B-chain peptides corresponded to amino acid residues 1-12 (B1-12), 10-22 (B10-22), 11-30 (B11-30) and 23-30 (B23-30). All animals were fed 10 times over three weeks.

EAE [2] = assay: I.V. tolerization with MBP and MBP peptides in EAE induced with whole guinea pig MBP; format: in vivo, SJL/J mice; settings: days 8 and 9 post immunization, FIG. 16
Source text: FIG. 16 is a bar graph showing the effect of intravenous tolerization with MBP and disease inducing and non-inducing fragments thereof on induced EAE expression in SJL/J mice.
Finally, the suppression of EAE by I.V. tolerization with MBP and MBP peptides prior to disease expression (on days 8 and 9 post immunization) was examined.

[3] = MBP-fed modulators + MBP in upper well
[4] = MBP-fed modulators in upper well without MBP

B1: MBP: Guinea pig myelin basic protein purified from brain tissue (protein, UniProt P25188 1-167, looked up)
Myelin basic protein: ASQKRPSQRHGSKYLATASTMDHARHGFLPRHRDTGILDSIGRFFGSDRAAPKRGSGKDSHHAARTTHYGSLPQKSQRSQDENPVVHFFKNIVTPRTPPPSQGKGRGLSLSRFSWGAEGQKPGFGYGGRADYKSKGFKGAHDAQGTLSKIFKLGGRDSRSGSPMARR
proliferation of the MBP line after addition of supernatants (MBP specific T-cells): reduction in the proliferation of the MBP line | maximal disease severity (EAE [1]): 1.0±0.2 | Percent Suppression (OVA line; [3]): 51% | Δ cpm (OVA line; [3]): 30,974 ± 3,450 cpm | Percent Suppression (OVA line; [4]): −5% | Δ cpm (OVA line; [4]): 65,868 ± 3,989 cpm | suppression of insulitis (in words) (insulitis): No suppression was observed | Insulitis Score (insulitis; amount (mg) per Table 5, sacrificed at ten weeks of age): 2.14 | suppression of EAE induced with whole guinea pig MBP (EAE [2]): effective in suppressing EAE
